Data from the supplement of paper PMC10567573.

B1: CCDC70 (parent)
chain: FSFKVSRWMGLACFRSLAASSPSI
B2: CDC14A (parent)
chain: LWVQGDIFRSKLKNRPSSEGSINK

Variants of: B1
Experiment: protein stability index of a GFP-peptide fusion (GPS, HEK-293T) (PSI 1-6); higher = more stable
Conditions: c terminus: a fixed tail appended
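Also: lentivirally expressed fusions sorted by FACS into six bins by GFP to DsRed ratio, PSI derived from sequencing read proportions per bin multiplied by bin number.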

**Q.** For FSFKVSRWMRLACFRSLAASSPSI [G10R], which protein stability index is on record?
**A.** 2.37

**Q.** Which protein stability index does the source give for FSFKVSRWMALACFRSLAASSPSI [G10A] here?
**A.** 3.75

**Q.** Which protein stability index does the source give for FSFKVSRWMVLACFRSLAASSPSI [G10V] here?
**A.** 2.36

**Q.** For FSFKVSRWMGLFCFRSLAASSPSI [A12F], which protein stability index is on record?
**A.** 2.57

**Q.** With FSFKVSRWMGLMCFRSLAASSPSI [A12M] as the variant, how does the protein stability index read?
**A.** 3.25

**Q.** With FSFKVSRWMGLPCFRSLAASSPSI [A12P] as the variant, how does the protein stability index read?
**A.** 2.56

**Q.** Which protein stability index does the source give for FSFKVSRWMGLHCFRSLAASSPSI [A12H] here?
**A.** 1.57

**Q.** Which protein stability index does the source give for FSFKVSRWMGLCCFRSLAASSPSI [A12C] here?
**A.** 3.26

**Q.** With FSFKVSRWMGLACFRDLAASSPSI [S16D] as the variant, how does the protein stability index read?
**A.** 2.86

**Q.** Which protein stability index does the source give for FSFKVSRWMGLACFRKLAASSPSI [S16K] here?
**A.** 2.18

**Q.** Which protein stability index does the source give for FSFKVSRWMGLACFRELAASSPSI [S16E] here?
**A.** 4.34

**Q.** Which protein stability index does the source give for FSFKVSRWMGEACFRSLAASSPSI [L11E] here?
**A.** 1.76

**Q.** For FSFKVSRWMGTACFRSLAASSPSI [L11T], which protein stability index is on record?
**A.** 3.12

**Q.** For FSFKVSRWMGDACFRSLAASSPSI [L11D], which protein stability index is on record?
**A.** 2.84

**Q.** For FSFKVSRWMGRACFRSLAASSPSI [L11R], which protein stability index is on record?
**A.** 4.02

Variants of: B2
Experiment: as above
Conditions: c terminus: a fixed tail appended

**Q.** For LWVQGDIFRSKLKNRPSSEGSIFK [N23F], which protein stability index is on record?
**A.** 1.45

**Q.** With LWVQGDIFRSKLKNRPSSEGSISK [N23S] as the variant, how does the protein stability index read?
**A.** 2.96

**Q.** For LWVQGDIFRSKLKNRPSSEGSIEK [N23E], which protein stability index is on record?
**A.** 2.89

**Q.** For LWVQGDIFRSKLKNRPSSEGSIGK [N23G], which protein stability index is on record?
**A.** 3.05

**Q.** For LWVQGDIFRSKLKNRPSSEGSIMK [N23M], which protein stability index is on record?
**A.** 2.15

**Q.** For LWVQGDIFRSKLKNRPSSEGSIIK [N23I], which protein stability index is on record?
**A.** 2.15

**Q.** For LWVQGDIFRSKLKNRPSSEGSIYK [N23Y], which protein stability index is on record?
**A.** 1.91

**Q.** For LWVQGDIFRSKLKNRPSSEGSIHK [N23H], which protein stability index is on record?
**A.** 2.65

**Q.** With LWVQGDIFRSKLKNRPSSEGSICK [N23C] as the variant, how does the protein stability index read?
**A.** 2.17

**Q.** Which protein stability index does the source give for LWVQGDIFRSKLKNRPSSEGSIPK [N23P] here?
**A.** 3.06

**Q.** Which protein stability index does the source give for LWVQGDIFRSKLKNRPSSEGSIRK [N23R] here?
**A.** 2.4

**Q.** With LWVQGDIFRSKLKNRPSSEGSILK [N23L] as the variant, how does the protein stability index read?
**A.** 2.1

**Q.** For LWVQGDIFRSKLKNRPSSEGSIQK [N23Q], which protein stability index is on record?
**A.** 2.31

**Q.** Which protein stability index does the source give for LWVQGDIFRSKLKNRPSSEGSIWK [N23W] here?
**A.** 2.8

**Q.** For LWVQGDIFRSKLKNRPSSEGSIDK [N23D], which protein stability index is on record?
**A.** 2.8

**Q.** Which protein stability index does the source give for LWVQGDIFRSKLKNRPSSEGSIAK [N23A] here?
**A.** 2.08

**Q.** With LWVQGDIFRSKLKNRPSSEGSIKK [N23K] as the variant, how does the protein stability index read?
**A.** 2.69

**Q.** Which protein stability index does the source give for LWVQGDIFRSKLKNRPSSEGSITK [N23T] here?
**A.** 3.06

**Q.** For LWVQGDIFRSKLKNRPSSETSINK [G20T], which protein stability index is on record?
**A.** 2.85

**Q.** Which protein stability index does the source give for LWVQGDIFRSKLKNRPSSEWSINK [G20W] here?
**A.** 2.03

**Q.** For LWVQGDIFRSKLKNRPSSESSINK [G20S], which protein stability index is on record?
**A.** 2.58

**Q.** With LWVQGDIFRSKLKNRPSSEVSINK [G20V] as the variant, how does the protein stability index read?
**A.** 2.23

**Q.** With LWVQGDIFRSKLKNRPSSEGTINK [S21T] as the variant, how does the protein stability index read?
**A.** 3.13

**Q.** Which protein stability index does the source give for LWVQGDIFRSKLKNRPSSEGPINK [S21P] here?
**A.** 3.06

**Q.** For LWVQGDIFRSKLKNRPSSEGLINK [S21L], which protein stability index is on record?
**A.** 2.24

**Q.** With LWVQGDIFRSKLKNRPSSEGCINK [S21C] as the variant, how does the protein stability index read?
**A.** 2.64

**Q.** Which protein stability index does the source give for LWVQGDIFRSKLKNRPSSEGFINK [S21F] here?
**A.** 2.46

**Q.** For LWVQGDIFRSKLKNRPSSEGMINK [S21M], which protein stability index is on record?
**A.** 2.15

**Q.** For LWVQGDIFRSKLKNRPSSEGQINK [S21Q], which protein stability index is on record?
**A.** 3.15

**Q.** For LWVQGDIFRSKLKNRPSSEGNINK [S21N], which protein stability index is on record?
**A.** 2.18

**Q.** With LWVQGDIFRSKLKNRPSSEGHINK [S21H] as the variant, how does the protein stability index read?
**A.** 2.41

**Q.** Which protein stability index does the source give for LWVQGDIFRSKLKNRPSSEGGINK [S21G] here?
**A.** 2.84

**Q.** Which protein stability index does the source give for LWVQGDIFRSKLKNRPSSEGKINK [S21K] here?
**A.** 2.42

**Q.** Which protein stability index does the source give for LWVQGDIFRSKLKNRPSSEGEINK [S21E] here?
**A.** 3.65

**Q.** Which protein stability index does the source give for LWVQGDIFRSKLKNRPSSEGWINK [S21W] here?
**A.** 2.42

**Q.** Which protein stability index does the source give for LWVQGDIFRSKLKNRPSSEGYINK [S21Y] here?
**A.** 2.22

**Q.** Which protein stability index does the source give for LWVQGDIFRSKLKNRPSSEGAINK [S21A] here?
**A.** 2.77

**Q.** For LWVQGDIFRSKLKNRPSSEGRINK [S21R], which protein stability index is on record?
**A.** 1.73

**Q.** With LWVQGDIFRSKLKNRPSSEGDINK [S21D] as the variant, how does the protein stability index read?
**A.** 4.21

**Q.** Which protein stability index does the source give for LWVQGDIFRSKLKNRPSSEGIINK [S21I] here?
**A.** 2.08

**Q.** For LWVQGDIFRSKLKNRPSSEGVINK [S21V], which protein stability index is on record?
**A.** 2.41

**Q.** With LWVQGDIFRSKLKNRPSSEGSGNK [I22G] as the variant, how does the protein stability index read?
**A.** 3.21

**Q.** Which protein stability index does the source give for LWVQGDIFRSKLKNRPSSEGSMNK [I22M] here?
**A.** 3.02

**Q.** With LWVQGDIFRSKLKNRPSSEGSYNK [I22Y] as the variant, how does the protein stability index read?
**A.** 2.85

**Q.** Which protein stability index does the source give for LWVQGDIFRSKLKNRPSSEGSANK [I22A] here?
**A.** 3.1

**Q.** With LWVQGDIFRSKLKNRPSSEGSFNK [I22F] as the variant, how does the protein stability index read?
**A.** 2.51

**Q.** With LWVQGDIFRSKLKNRPSSEGSVNK [I22V] as the variant, how does the protein stability index read?
**A.** 2.81

**Q.** For LWVQGDIFRSKLKNRPSSEGSLNK [I22L], which protein stability index is on record?
**A.** 2.79

**Q.** Which protein stability index does the source give for LWVQGDIFRSKLKNRPSSEGSTNK [I22T] here?
**A.** 3.39

**Q.** Which protein stability index does the source give for LWVQGDIFRSKLKNRPSSEGSSNK [I22S] here?
**A.** 3.88

**Q.** For LWVQGDIFRSKLKNRPSSEGSNNK [I22N], which protein stability index is on record?
**A.** 3.05

**Q.** For LWVQGDIFRSKLKNRPSSEGSHNK [I22H], which protein stability index is on record?
**A.** 3.32

**Q.** For LWVQGDIFRSKLKNRPSSEGSWNK [I22W], which protein stability index is on record?
**A.** 2.33

**Q.** For LWVQGDIFRSKLKNRPSSEGSQNK [I22Q], which protein stability index is on record?
**A.** 2.71

**Q.** For LWVQGDIFRSKLKNRPSSEGSPNK [I22P], which protein stability index is on record?
**A.** 2.63

**Q.** With LWVQGDIFRSKLKNRPSSEGSCNK [I22C] as the variant, how does the protein stability index read?
**A.** 2.59

**Q.** For LWVQGDIFRSKLKNRPSSEGSKNK [I22K], which protein stability index is on record?
**A.** 2.06

**Q.** Which protein stability index does the source give for LWVQGDIFRSKLKNRPSSEGSRNK [I22R] here?
**A.** 3.2

**Q.** For LWVQGDIFRSKLKNRPSSEGSDNK [I22D], which protein stability index is on record?
**A.** 3.2

**Q.** For LWVQGDIFRSKLKNRPSSEGSENK [I22E], which protein stability index is on record?
**A.** 2.97

**Q.** For LWVQGDIFRSKLKNRPSSEGSINI [K24I], which protein stability index is on record?
**A.** 1.8

**Q.** For LWVQGDIFRSKLKNRPSSEGSINT [K24T], which protein stability index is on record?
**A.** 2.83

**Q.** Which protein stability index does the source give for LWVQGDIFRSKLKNRPSSEGSINP [K24P] here?
**A.** 2.46

**Q.** For LWVQGDIFRSKLKNRPSSEGSINN [K24N], which protein stability index is on record?
**A.** 2.79

**Q.** For LWVQGDIFRSKLKNRPSSEGSINE [K24E], which protein stability index is on record?
**A.** 2.73

**Q.** With LWVQGDIFRSKLKNRPSSEGSING [K24G] as the variant, how does the protein stability index read?
**A.** 2.26

**Q.** Which protein stability index does the source give for LWVQGDIFRSKLKNRPSSEGSINQ [K24Q] here?
**A.** 2.41

**Q.** With LWVQGDIFRSKLKNRPSSEGSINL [K24L] as the variant, how does the protein stability index read?
**A.** 1.91

**Q.** For LWVQGDIFRSKLKNRPSSEGSINV [K24V], which protein stability index is on record?
**A.** 1.63

**Q.** For LWVQGDIFRSKLKNRPSSEGSINF [K24F], which protein stability index is on record?
**A.** 1.75

**Q.** For LWVQGDIFRSKLKNRPSSEGSINY [K24Y], which protein stability index is on record?
**A.** 1.73

**Q.** Which protein stability index does the source give for LWVQGDIFRSKLKNRPSSEGSINW [K24W] here?
**A.** 2.47

**Q.** With LWVQGDIFRSKLKNRPSSEGSINH [K24H] as the variant, how does the protein stability index read?
**A.** 2.06

**Q.** Which protein stability index does the source give for LWVQGDIFRSKLKNRPSSEGSINR [K24R] here?
**A.** 2.52

**Q.** With LWVQGDIFRSKLKNRPSSEGSIND [K24D] as the variant, how does the protein stability index read?
**A.** 2.79

**Q.** Which protein stability index does the source give for LWVQGDIFRSKLKNRPSSEGSINC [K24C] here?
**A.** 1.93

**Q.** For LWVQGDIFRSKLKNRPSSEGSINS [K24S], which protein stability index is on record?
**A.** 2.37

**Q.** Which protein stability index does the source give for LWVQGDIFRSKLKNRPSSEGSINM [K24M] here?
**A.** 2.08

**Q.** Which protein stability index does the source give for LWVQGDIFRSKLKNRPSSEGSINA [K24A] here?
**A.** 2.31
